Experimental data published in US7379820 (Pfizer, dated 2008).
Positions count from the first letter of the chain named.

T1: MBP-TRADD (full-length TRADD protein expressed as a MBP fusion) (UniProt Q15628 1-312)
T1 construct: mature; Immobilized on 96 well plates for ELISA
T1 sequence (looked up): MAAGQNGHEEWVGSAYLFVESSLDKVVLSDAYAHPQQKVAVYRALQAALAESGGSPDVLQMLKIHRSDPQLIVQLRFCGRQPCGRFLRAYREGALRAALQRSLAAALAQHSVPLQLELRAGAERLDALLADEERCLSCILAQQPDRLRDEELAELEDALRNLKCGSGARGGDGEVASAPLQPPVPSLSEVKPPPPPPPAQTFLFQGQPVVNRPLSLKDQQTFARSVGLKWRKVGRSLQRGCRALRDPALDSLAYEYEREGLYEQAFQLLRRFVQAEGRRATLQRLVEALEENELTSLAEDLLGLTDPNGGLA

B1: RIP DD E626A (other)
chain: MAIFDNTTSLTDKHLDPIRENLGKHWKNCARKLGFTQSQIDEIDHDYERDGLKAKVYQMLQKWVMREGIKGATVGKLAQALHQCSRIDLLSSLIYVSQNHHHHHHH
notes: Single point alanine mutant of the His-tagged RIP DD construct; soluble mutant
B2: RIP DD R603A (other)
chain: B1 chain with R31A, A54E
notes: as for B1
B3: RIP DD K599A (other)
chain: B1 chain with K27A, A54E
notes: Single point alanine mutant of the His-tagged RIP DD construct
B4: RIP DD K627A (other)
chain: B1 chain with A54E, K55A
notes: as for B3
B5: RIP DD K625A (other)
chain: B1 chain with K53A, A54E
notes: as for B3

Target: T1, MBP-TRADD (full-length TRADD protein …)
Assay: ELISA, MBP-TRADD immobilized on 96 well plates
Protocol: RIP DD binding assay. RIP DD binding to TRADD was determined by an enzyme-linked immunosorbent assay (ELISA). Ninety six well plates were coated overnight at 4° C. with 200 ng of MBP-TRADD, MBP-TNFR-1 DD, or MBP-IL1RacP (interleukin-1 receptor accessory protein) in coating buffer (25 mM MOPS pH 7.5, 150 mM NaCl, 10 mM DTT, 0.02% NaN_3). The plates were then incubated in blocking buffer (10 mM MOPS pH 7.5, 150 mM NaCl, 0.05% Tween 20, 0.1% Gelatin, 0.02% NaN_3) for one hour followed by one hour incubation with the different RIP DD proteins in binding buffer (100 mM Tris pH 7.5, 140 mM NaCl, 0.1 mM EDTA, 0.2% Triton X-100, 10 mM DTT). The plates were washed 4 times in 10 mM potassium phosphate buffer pH 7.4, 0.05% Tween 20. The bound His tagged proteins were then incubated for 30 minutes in 10 mM MOPS pH 7.5, 150 mM NaCl, 0.05% Tween 20, 0.02% NaN_3 anti-6× His biotinylated anti mouse antibody and strepavidin conjugated alkaline phosphatase. The plates were washed 4 times in 10 mM potassium phosphate buffer pH 7.4, 0.05% Tween. Tropix CDP-Star/Sapphire II solution was used for the luminescent detection of alkaline phosphatase.
Figure 4: FIGS. 4A and 4B. (A) Effect of the ionic strength on the binding of RIP-DD (30 μg/mL) to MBP-TRADD. (B) ELISA of RIP-DD binding to MBP-TRADD. MBP-TRADD was immobilized at 500 ng/well on 96 well plates. The reference at 100% is the binding of the wild type protein to MBP-TRADD. The values used for the determination of the binding percentage were obtained with ~30 μg/ml of soluble protein. Figure 4: Figure 5: FIG. 5. Sequence alignment of the death domains of FAS (SEQ ID NO:2) and RIP (SEQ ID NO:3). Identical residues and homologous residues are shaded. The helices identified from the NMR structure of FAS DD (Huang et al., 1996) are located above the sequence and the helices identified from the NMR structure of RIP DD are located below the sequence.

Q: Does B1 bind?
A: Result: no binding (tested: ~30 µg/ml of soluble protein)

Q: Does B2 bind?
A: Result: no binding (tested: ~30 µg/ml of soluble protein)

Q: Does B3 bind?
A: Result: no binding (tested: ~30 µg/ml of soluble protein)

Q: Does B4 bind?
A: Result: no binding (tested: ~30 µg/ml of soluble protein)

Q: Does B5 bind?
A: Result: no binding (tested: ~30 µg/ml of soluble protein)
